According to US20090117590A1, “Human calcium sensitive potassium channel beta3 subunit proteins, encoding nucleic acid and uses thereof” (priority 1999, published 2009):
Like-named read-outs stand apart in the source and are kept apart here.

B1: β2: β2 subunit of human calcium sensitive potassium channel, amino acid sequence SEQ. ID. NO.:2 (protein, listed as Homo Sapiens)
chain: MFIWTSGRTSSSYRHDEKRNIYQKIRDHDLLDKRKTVTALKAGEDRAILLGLAMMVCSIMMYFLLGITLLRSYMQSVWTEESQCTLLNASITETFNCSFSCGPDCWKLSQYPCLQVYVNLTSSGEKLLLYHTEETIKINQKCSYIPKCGKNFEESMSLVNVVMENFRKYQHFSCYSDPEGNQKSVILTKLYSSNVLFHSLFWPTCMMAGGVAIVAMVKLTQYLSLLCERIQRINR
B2: β3a: β3a subunit of human calcium sensitive potassium channel, amino acid sequence SEQ. ID. NO.:4 (protein, listed as Homo Sapiens)
chain: MQPFSIPVQITLQGSRRRQGRTAFPASGKKRETDYSDGDPLDVHKRLPSSTGEDRAVMLGFAMMGFSVLMFFLLGTTILKPFMLSIQREESTCTAIHTDIMDDWLDCAFTCGVHCHGQGKYPCLQVFVNLSHPGQKALLHYNEEAVQINPKCFYTPKCHQDRSDLLNSALDIKEFFDHKNGTPFSCFYSPASQSEDVILIKKYDQMAIFHCLFWPSLTLLGGALIVGMVRLTQHLSLLCEKYSTVVRDEVGGKVPYIEQHQFKLCIMRRSKGRAEKS
B3: β3c: β3c subunit of human calcium sensitive potassium channel, amino acid sequence SEQ. ID. NO.:8 (protein)
chain: MFPLLYELTAVSPSPFPQRTAFPASGKKRETDYSDGDPLDVHKRLPSSTGEDRAVMLGFAMMGFSVLMFFLLGTTILKPFMLSIQREESTCTAIHTDIMDDWLDCAFTCGVHCHGQGKYPCLQVFVNLSHPGQKALLHYNEEAVQINPKCFYTPKCHQDRSDLLNSALDIKEFFDHKNGTPFSCFYSPASQSEDVILIKKYDQMAIFHCLFWPSLTLLGGALIVGMVRLTQHLSLLCEKYSTVVRDEVGGKVPYIEQHQFKLCIMRRSKGRAEKS
B4: β3b: β3b subunit of human calcium sensitive potassium channel, amino acid sequence SEQ. ID. NO.:6 (protein, listed as Homo Sapiens)
chain: MTAFPASGKKRETDYSDGDPLDVHKRLPSSTGEDRAVMLGFAMMGFSVLMFFLLGTTILKPFMLSIQREESTCTAIHTDIMDDWLDCAFTCGVHCHGQGKYPCLQVFVNLSHPGQKALLHYNEEAVQINPKCFYTPKCHQDRNDLLNSALDIKEFFDHKNGTPFSCFYSPASQSEDVILIKKYDQMAIFHCLFWPSLTLLGGALIVGMVRLTQHLSLLCEKYSTVVRDEVGGKVPYIEQHQFKLCIMRRSKGRAEKS
B5: β3d: β3d subunit of human calcium sensitive potassium channel, amino acid sequence SEQ. ID. NO.:10 (protein)
chain: MDFSPSSELGFHFVAFILLTRHRTAFPASGKKRETDYSDGDPLDVHKRLPSSTGEDRAVMLGFAMMGFSVLMFFLLGTTILKPFMLSIQREESTCTAIHTDIMDDWLDCAFTCGVHCHGQGKYPCLQVFVNLSHPGQKALLHYNEEAVQINPKCFYTPKCHQDRNDLLNSALDIKEFFDHKNGTPFSCFYSPASQSEDVILIKKYDQMAIFHCLFWPSLTLLGGALIVGMVRLTQHLSLLCEKYSTVVRDEVGGKVPYIEQHQFKLCIMRRSKGRAEKS
B6: β1: previously known human calcium sensitive potassium channel β1 subunit, SEQ. ID. NO.:11, GenBank U25138 (protein)
chain: MVKKLVMAQKRGETRALCLGVTMVVCAVITYYILVTTVLPLYQKSVWTQESKCHLIETNIRDQEELKGKKVPQYPCLWVNVSAAGRWAVLYHTEDTRDQNQQCSYIPGSVDNYQTARADVEKVRAKFQEQQVFYCFSAPRGNETSVLFQRLYGPQALLFSLFWPTFLLTGGLLIIAMVKSNQYLSILAAQK

Experiments:
[1] = system: α subunit of a human calcium sensitive potassium channel (human Slowpoke α); test: Electrophysiological analysis of β subunits co-expressed with the α subunit in Xenopus oocytes, inside-out patches; format: cell-based; settings: for inactivation of calcium sensitive potassium currents: co-expressed with the α subunit; for V1/2 (half-maximal activation, Boltzmann fit to normalized conductances) / changes in the kinetics and voltage dependence of the channels formed by α subunits: inside-out patches, internal Ca2+ 30 μM; for V1/2 (half-maximal activation, Boltzmann fit to normalized conductances): α and β cRNAs 1:10 (β in excess), α subunit alone 20 mV; for shift of the voltage dependence compared to channels containing only α subunits: micromolar intracellular Ca2+; for changes in the kinetics and voltage dependence of the channels formed by α subunits: α and β cRNAs 1:10
Description: The voltage clamp protocol consisted of a pre-pulse to −160 mV (200 ms), followed by 20 mV depolarizing steps from −80 to +80 mV (500 ms); holding potential was −80 mV; internal Ca^2+ was 30 μM. […] FIG. 7B: Boltzmann equations were fit to normalized conductances for the records shown in 7A, which were calculated from peak currents and plotted as function of test potential. V1/2 values are: 20 mV (α subunit alone); −55 mV (α+β2 subunit); 45.36 mV (α+β3α subunit); 20 mV (α+β3c subunit). […] Inactivation rates and fractional inactivating current were calculated as described in Example 2.
The β2, β3a, β3b, β3c, and β3d subunits of the human calcium sensitive potassium channel have been expressed in Xenopus oocytes, both by themselves and in combination with an α subunit of a large-conductance calcium-sensitive potassium channel (maxi-K channel). […] The rates of inactivation produced by β2, β3a and β3c are dependent upon voltage and internal calcium concentration; inactivation time constants reach a maximum at high depolarizations and high micromolar calcium for β2, β3a and β3c, τinact ˜30-40 ms at 80 mV with 30 μM intracellular Ca^2+. […] (McManus et al., 1995, Neuron 14:645-650).
Electrophysiological analysis: cRNAs were synthesized in vitro from plasmids encoding human Slowpoke α or the β2, β3a, β3b, β3c, or β3d subunits and injected into Xenopus oocytes (1.5 ng/oocyte of α subunit RNA +/−β subunit RNA at 1, 5, or 10× molar excess). Calcium sensitive potassium currents were recorded in inside-out patches. Recordings were performed under ionic conditions of symmetrical potassium. The standard pipette and bath solutions contained 116 mM potassium gluconate, 4 mM potassium chloride, 10 mM HEPES, pH 7.2. CaCl2 was added to the bath solution to give final concentrations of free ionized calcium of 3-30 μM, taking into account the stability constant for calcium gluconate (15.9 M^−1). Currents were recorded using an EPC-7 amplifier (HEKA). The pClamp6.0 program (Axon Instruments) was used to generate voltage-clamp commands for data acquisition, and for analysis. NPO-voltage relations were determined at 3, 10 and 30 μM bath calcium using two methods: (1) calculation of macroscopic conductance from peak or steady-state currents at test potentials (−80 to 80 mV), or (2) measurement or calculation of tail currents peaks (−80 mV) at test potentials. Boltzmann functions were fit to the data and used to derive the half-maximal activation parameter (V1/2). Maximal inactivation parameters (30 μM Ca^2+ and 80 mV) were calculated from current traces or averaged current traces. Inactivation rates were determined from single exponential fits. Fractional non-inactivating current was calculated as steady-state/peak current; fractional inactivating current was estimated as peak current minus steady-state current divided by peak current.

[2] = system: α subunit of a human calcium sensitive potassium channel (human Slowpoke α); settings: previously described (McManus et al., 1995); cited from earlier work

| Molecule | inactivation of calcium sensitive potassium currents [1] | V1/2 (half-maximal activation, Boltzmann fit to normalized conductances) [1] [mV] | shift in the voltage dependence of activation ([1]; towards negative potentials, with 30 μM Ca2+ in the bath) [mV] | shift of the voltage dependence compared to channels containing only α subunits [1] | changes in the kinetics and voltage dependence of the channels formed by α subunits [1] | inactivation of calcium sensitive potassium currents [2] |
| --- | --- | --- | --- | --- | --- | --- |
| B1 | induce inactivation | −55 | ~80 | – | – | – |
| B2 | induce inactivation | 45.36 | – | do not shift the voltage dependence | – | – |
| B3 | induce inactivation | 20 | – | do not shift the voltage dependence | – | – |
| B4 | – | – | – | do not shift the voltage dependence | did not induce noticeable changes | – |
| B5 | – | – | – | do not shift the voltage dependence | did not induce noticeable changes | – |
| B6 | – | – | – | – | – | do not induce inactivation |
